Results taken from paper PMC9369135, “An FGFR1-Binding Peptide Modified Liposome for siRNA Delivery in Lung Cancer” (International Journal of Molecular Sciences, 2022).
Where no end group is shown, it is not given here.

Columns and labels:
Experiment in all cases: MST; protein in a series of gradient dilutions, an equal amount of labeled CP7 peptide added; PBS with 0.05% Tween-20; glass capillary; room temperature; Monolith NT.115
Settings in all cases: both partners purified
[1] = molecular target: T1, Human FGFR1/CD331 protein (His tag) (human, UniProt P11362 22-376)
T1 construct: human FGFR1/CD331, recombinant protein with His tag, Sino Biological 10616-H08H; Check the vendor's data sheet; source: bought: Sino Biological
T1 sequence (looked up): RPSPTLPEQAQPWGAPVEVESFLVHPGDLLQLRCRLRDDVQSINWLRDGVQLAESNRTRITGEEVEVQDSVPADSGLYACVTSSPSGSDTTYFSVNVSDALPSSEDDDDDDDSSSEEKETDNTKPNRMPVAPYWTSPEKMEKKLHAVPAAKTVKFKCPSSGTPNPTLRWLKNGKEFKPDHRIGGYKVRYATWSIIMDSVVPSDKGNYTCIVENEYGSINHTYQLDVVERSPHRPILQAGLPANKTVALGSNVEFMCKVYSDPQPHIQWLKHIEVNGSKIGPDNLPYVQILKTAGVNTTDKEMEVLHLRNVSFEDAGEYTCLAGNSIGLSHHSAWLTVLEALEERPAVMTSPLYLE

[2] = molecular target: T2, Human EGFR/HER1/ErbB1 protein (His tag) (human, UniProt P00533 25-645)
T2 construct: human EGFR/HER1/ErbB1, recombinant protein with His tag, Sino Biological 10001-H08H; Check the vendor's data sheet; source: bought: Sino Biological

[3] = molecular target: T3, Human VEGFR1/FLT-1 protein (Fc tag) (human, UniProt P17948 27-758)
T3 construct: human VEGFR1/FLT-1, recombinant protein with Fc tag, Sino Biological 10136-H02H; Check the vendor's data sheet; source: bought: Sino Biological
T3 sequence (P17948 27-758): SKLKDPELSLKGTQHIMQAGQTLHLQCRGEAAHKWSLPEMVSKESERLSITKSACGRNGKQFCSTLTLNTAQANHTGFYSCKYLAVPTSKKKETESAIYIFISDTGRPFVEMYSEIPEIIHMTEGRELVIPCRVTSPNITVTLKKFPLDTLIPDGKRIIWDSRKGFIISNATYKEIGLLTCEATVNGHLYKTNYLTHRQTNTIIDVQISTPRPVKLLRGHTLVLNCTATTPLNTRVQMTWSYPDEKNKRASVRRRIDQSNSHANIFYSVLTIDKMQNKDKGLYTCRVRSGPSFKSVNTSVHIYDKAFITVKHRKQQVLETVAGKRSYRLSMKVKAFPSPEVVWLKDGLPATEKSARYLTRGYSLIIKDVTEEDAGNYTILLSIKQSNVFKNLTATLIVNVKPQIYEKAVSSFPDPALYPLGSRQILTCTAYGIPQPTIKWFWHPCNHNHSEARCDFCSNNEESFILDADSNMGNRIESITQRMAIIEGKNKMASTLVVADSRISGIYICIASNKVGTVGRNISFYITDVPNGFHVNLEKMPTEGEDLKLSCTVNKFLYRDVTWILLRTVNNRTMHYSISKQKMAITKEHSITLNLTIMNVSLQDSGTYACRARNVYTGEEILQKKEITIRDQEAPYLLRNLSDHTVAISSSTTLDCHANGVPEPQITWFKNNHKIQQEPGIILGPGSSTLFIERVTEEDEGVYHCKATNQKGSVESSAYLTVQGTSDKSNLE

Kd [1]: 22.5 nM | Kd [2]: 389 nM | Kd [3]: 66.1 nM
B1: CP7 peptide (CIQPFYP) (peptide)
peptide: CIQPFYP
modifications: also: labelled, label not named
notes: novel peptide designed and screened by the authors' group; The methods of the MST say only 'the labeled peptide'; source: synthetic peptide: Shanghai GL Biochem Peptide Ltd
